For assay [1], the target named is HLA-B*18:01. In words: IEDB peptide-MHC binding, purified MHC/competitive/radioactivity; filed as Kd, often an IC50 or EC50 that approximates it; ≥ and ≤ were set here for values at or beyond the usual limits of such assays.
The target in assay [2] is HLA-B*40:01. The description is as above.
The target of assay [3] is HLA-B*40:02. The description is as above.
Assay [4] addresses HLA-B*44:02. The description is as above.
Assay [5] deals with HLA-B*44:03. The assay is described as above.
Assay [6] has as its target HLA-B*45:01. The assay is described as above.
In assay [7] the target is HLA-A*01:01. The description is as above.
The target of assay [8] is HLA-A*26:01. The description is as above.
For assay [9], the target named is HLA-A*29:02. Described as above.
The target in assay [10] is HLA-A*30:01. Described as above. As to conditions: source organism: Mammarenavirus whitewaterense.
Assay [11] deals with HLA-A*30:02. Described as above.
The target in assay [12] is HLA-A*32:01. Described as above. As to conditions: source organism: Mammarenavirus whitewaterense.
Assay [13] deals with HLA-A*02:01. The assay is described as follows: IEDB peptide-MHC binding, purified MHC/direct/fluorescence; filed as Kd, often an IC50 or EC50 that approximates it; ≥ and ≤ were set here for values at or beyond the usual limits of such assays. The note with it: source organism: Orthohantavirus andesense.
Assay [14] deals with HLA-A*03:01. The description is as above. The note with it: source organism: Orthohantavirus tulaense.
Assay [15] deals with HLA-A*26:01. In words: IEDB peptide-MHC binding, purified MHC/competitive/fluorescence; filed as Kd, often an IC50 or EC50 that approximates it; ≥ and ≤ were set here for values at or beyond the usual limits of such assays. The note with it: source organism: Orthohantavirus tulaense.
Assay [16] has as its target HLA-B*15:01. Described as above.
Assay [17] addresses HLA-B*18:01. Described as above. As to conditions: source organism: Orthohantavirus tulaense.
Assay [18] concerns the target HLA-B*27:03. Described as above. As to conditions: source organism: Orthohantavirus tulaense.
Assay [19] deals with HLA-B*51:01. The assay is described as above. The note with it: source organism: Orthohantavirus tulaense.
Assay [20] addresses HLA-B*57:01. The description is as above. As to conditions: source organism: Orthohantavirus tulaense.
In assay [21] the target is HLA-A*23:01. In words: IEDB peptide-MHC binding, purified MHC/competitive/radioactivity; filed as Kd, often an IC50 or EC50 that approximates it; ≥ and ≤ were set here for values at or beyond the usual limits of such assays. As to conditions: source organism: SARS coronavirus Tor2.
For assay [22], the target named is HLA-A*24:02. The assay is described as above. As to conditions: source organism: SARS coronavirus Tor2.
Where [23] appears, read: source organism: SARS coronavirus Tor2.
The mark [24] stands for this setting: source organism: Lymphocytic choriomeningitis virus (strain Armstrong).
Setting [25] is: source organism: Mammarenavirus machupoense.
Setting [26] is: source organism: Mammarenavirus whitewaterense.
[27] abbreviates: source organism: Mammarenavirus lassaense.

As a reminder, the Kd is a measure of binding affinity in units of concentration.

On to QELLIQQWI, for which the Kd in [1] (setting [23]) is 8.66 µM; in assay [2] (setting [23]), 0.186 µM; in assay [3] (setting [23]) it was 0.0617 µM; in assay [4] (setting [23]), 0.0912 µM; in [5] (setting [23]), 13.5 µM; in [6] (setting [23]), 0.316 µM.
For LDVLCLSSL, the Kd in assay [1] (setting [24]) was at least 22.9 µM; in assay [2] (setting [24]) it was 6.12 µM; in assay [3] (setting [24]) it was 0.0434 µM; in assay [4] (setting [24]) it was 7.76 µM; in assay [5] (setting [24]), 7.54 µM; in assay [6] (setting [24]), 8.17 µM.
As for EEPVALLPLS, the Kd was found to be 15.5 µM in [1] (setting [25]); 5.16 µM in assay [2] (setting [25]); 4.41 µM in assay [3] (setting [25]); 8.42 µM in assay [4] (setting [25]); 2.94 µM in [5] (setting [25]); 0.795 µM in [6] (setting [25]).
On to EEAIRHVRA, for which the Kd in assay [1] (setting [23]) was at least 55.7 µM; in assay [2] (setting [23]), 5.59 µM; in assay [3] (setting [23]), 5.53 µM; in [4] (setting [23]), 2.78 µM; in assay [5] (setting [23]) it was 5.81 µM; in assay [6] (setting [23]), 0.0398 µM.
With REGVFVFNG, the Kd was at least 39 µM in assay [1] (setting [23]); 1.55 µM in assay [2] (setting [23]); 0.222 µM in assay [3] (setting [23]); 4.77 µM in [4] (setting [23]); 0.298 µM in assay [5] (setting [23]); 0.136 µM in assay [6] (setting [23]).
Consider DLGLLYTAKY, for which the Kd in assay [7] (setting [26]) was 13.7 µM; in [8] (setting [26]), 1 µM; in assay [9] (setting [26]) it was 0.386 µM; in assay [10], at least 58.4 µM; in [11] (setting [26]) it was 0.0369 µM; in assay [12] it was at least 69.9 µM.
As for SDEVARDLSL, the Kd was at least 43.2 µM in [1] (setting [23]); 0.353 µM in assay [2] (setting [23]); 10.6 µM in assay [3] (setting [23]); 5.65 µM in assay [4] (setting [23]); 3.87 µM in [5] (setting [23]); 0.262 µM in assay [6] (setting [23]).
With EEVVLKNGEL, the Kd came to 0.381 µM in assay [1] (setting [23]); 0.00633 µM in assay [2] (setting [23]); 0.0139 µM in [3] (setting [23]); 0.0467 µM in assay [4] (setting [23]); 0.0148 µM in assay [5] (setting [23]); 1.33 µM in assay [6] (setting [23]).
SLFGAAVSL: the Kd in assay [13] is at most 0.0001 µM; in assay [14], at least 20 µM; in assay [15], at least 20 µM; in assay [16] (source organism: Orthohantavirus tulaense), 0.0497 µM; in assay [17], at least 20 µM; in [18] it was at least 20 µM. Besides, the Kd in assay [19] and in assay [20] was at least 20 µM in each case.
In the case of MEAQFLYLY, the Kd in assay [7] (setting [23]) came out at 1.57 µM; in assay [21], 16.8 µM; in assay [22] it was 9.6 µM; in [8] (setting [23]), 1.93 µM; in assay [9] (setting [23]), 0.00598 µM; in assay [11] (setting [23]), 0.0117 µM. Besides, the Kd in [1] (setting [23]) came out at 0.000292 µM; in assay [2] (setting [23]) it was 1.85 µM; in assay [3] (setting [23]), 2.22 µM; in assay [4] (setting [23]), 0.00215 µM; in [5] (setting [23]), 0.000933 µM; in assay [6] (setting [23]), 0.0122 µM.
As for KEAYCQEFSL, the Kd in assay [1] (setting [27]) was at least 36.9 µM; in [2] (setting [27]), 0.0883 µM; in assay [3] (setting [27]), 0.00968 µM; in assay [4] (setting [27]), 4.18 µM; in assay [5] (setting [27]), 16.1 µM; in [6] (setting [27]), 5.69 µM.
ALAAAGAAY: in assay [16] (source organism: Paracoccus denitrificans PD1222), the Kd turned out to be 0.123 µM.

Source of the values: the Immune Epitope Database (IEDB).
